Source: the supplement of paper PMC9732359
± gives the uncertainty stated by the source.

Test: protein stability index of a GFP-peptide fusion (yeast GPS) (PSI 1-4); higher = more stable; sorted into four equal gates, so the index is relative within each strain
Settings: doa10∆
In short: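 Tiled 17-residue peptides from yeast proteins were fused downstream of GFP on a plasmid that also expresses Cherry, and the pooled library was carried in yeast. Mid-log cultures grown in leucine-free medium were sorted into four equal gates by GFP/Cherry fluorescence ratio. Plasmids from each gate were PCR-amplified and Illumina-sequenced, and reads were assigned to strains by barcodes. Each peptide's protein stability index is the sum, over gates, of the gate's read frequency multiplied by its gate number.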

Question: With VFLRNRLKYALNGREVK [RPS4A] as the sequence, how does the protein stability index read?
Answer: 2.93 ± 0.099

Question: Which protein stability index does the source give for VFNDAHVLNKVTLASIL [RPN1] here?
Answer: 2.21 ± 0.091

Question: For VFVGTIFAGAFVFQTVF [QCR9], which protein stability index is on record?
Answer: 1.82 ± 0.061

Question: Which protein stability index does the source give for VFYQVTPEDADEEEDDE [RPL22B] here?
Answer: 1.84 ± 0.057

Question: With VGASVVVVKNWGAETDE [RPS12] as the sequence, how does the protein stability index read?
Answer: 3.34 ± 0.12

Question: Which protein stability index does the source give for VGDIVDIKANGSIQKGM [RPL21A] here?
Answer: 2.35 ± 0.072

Question: For VGKRVRYLVGGNKIQKV [RPS7A], which protein stability index is on record?
Answer: 1.25 ± 0.084

Question: For VGTAIDSILNYAKSEFD [ECM29], which protein stability index is on record?
Answer: 2.76 ± 0.2

Question: Which protein stability index does the source give for VHTANFSERGSNTRTMT [MED2] here?
Answer: 3.37 ± 0.3

Question: Which protein stability index does the source give for VICSVTGPIEPKARQEL [RRP46] here?
Answer: 2.79 ± 0.081

Question: For VIDIEIHVLEQDGGIMG [SKI6], which protein stability index is on record?
Answer: 2.84 ± 0.076

Question: For VINLKQIAKFVVGLGER [RPT1], which protein stability index is on record?
Answer: 2.75 ± 0.14

Question: With VISLGPNLATFISSGTS [YJL039C/NUP192] as the sequence, how does the protein stability index read?
Answer: 2.33 ± 0.061

Question: For VISMFVLPIFTTVFFSR [YML031W/NDC1], which protein stability index is on record?
Answer: 1.38 ± 0.046

Question: With VITPHFITNVQSISQNS [SWI1] as the sequence, how does the protein stability index read?
Answer: 1.85 ± 0.11

Question: Which protein stability index does the source give for VIVTDPRSDAQAIKEAS [RPS0A] here?
Answer: 2.88 ± 0.089

Question: With VKEEKEDMETQASDPSK [RPC53] as the sequence, how does the protein stability index read?
Answer: 3.27 ± 0.14

Question: Which protein stability index does the source give for VKFYEIFNFDQLVEITE [SRB8] here?
Answer: 1.24 ± 0.11

Question: For VKGLLNTYKRLVIGIFK [YJL039C/NUP192], which protein stability index is on record?
Answer: 2.53 ± 0.061

Question: Which protein stability index does the source give for VKHSPGAIKPFTPKLIY [ECM29] here?
Answer: 3.16 ± 0.089

Question: Which protein stability index does the source give for VKIVDKDGIRQVDDFQA [PRE1] here?
Answer: 2.86 ± 0.14

Question: With VKLGLNSKMPTRFPPAV [PRP8] as the sequence, how does the protein stability index read?
Answer: 2.78 ± 0.057

Question: For VKLGNIWKESLIELSGG [SMC2], which protein stability index is on record?
Answer: 2.22 ± 0.18

Question: Which protein stability index does the source give for VKLQMIKFGGLIIQKIP [ECM29] here?
Answer: 2.48 ± 0.059

Question: For VKNLSLMSCISVGTDPM [RPB2], which protein stability index is on record?
Answer: 1.88 ± 0.067

Question: With VKQLENVSSNIVKNAEQ [RPS20] as the sequence, how does the protein stability index read?
Answer: 2.58 ± 0.092

Question: With VKSFKPHLLKQGLAMVE [RRP42] as the sequence, how does the protein stability index read?
Answer: 2.01 ± 0.13

Question: Which protein stability index does the source give for VKSLRQGKSKLIIIAAN [RPL30] here?
Answer: 2.03 ± 0.11

Question: For VKTKTIELIDYDKLPAG [RET1], which protein stability index is on record?
Answer: 2.98 ± 0.12

Question: For VLEDVYRCFAQLELRQL [RRI2], which protein stability index is on record?
Answer: 2.15 ± 0.25

Question: For VLEFCKDYEAKTKAMSL [POP1], which protein stability index is on record?
Answer: 3.06 ± 0.045

Question: Which protein stability index does the source give for VLGNSRGVDAGKGNTFE [RPN14] here?
Answer: 2.73 ± 0.25

Question: For VLKADRSWNEPSKSQTN [YML103C/NUP188], which protein stability index is on record?
Answer: 2.93 ± 0.11

Question: With VLKVDKRFMNTSQNPQR [BRR2] as the sequence, how does the protein stability index read?
Answer: 3 ± 0.056

Question: For VLKVYSMINNSNQAVGQ [SRB8], which protein stability index is on record?
Answer: 2.85 ± 0.07

Question: Which protein stability index does the source give for VLQEYRLTKQAFDWVLS [RPO21] here?
Answer: 2.59 ± 0.068

Question: For VLRLATNKGPLAQIWLA [MCD1], which protein stability index is on record?
Answer: 1.93 ± 0.11

Question: For VLVGSCAYTGTGDVLLI [RPN1], which protein stability index is on record?
Answer: 3.13 ± 0.094

Question: For VLYQSNATHDEDEFIVQ [SWP82], which protein stability index is on record?
Answer: 3.05 ± 0.041

Question: Which protein stability index does the source give for VMEIGKDAEYLRNYLTP [PUP1] here?
Answer: 2.85 ± 0.076

Question: Which protein stability index does the source give for VMGTPLTNMMSPMGNAY [PGD1] here?
Answer: 2.03 ± 0.14

Question: With VMMDVDSSGVNDLHHSE [RPN3] as the sequence, how does the protein stability index read?
Answer: 3.34 ± 0.082

Question: Which protein stability index does the source give for VNARDIPPLNKSLAMEH [CSN12] here?
Answer: 2.77 ± 0.23

Question: For VNGSITDQLIQNIETRQ [NUT1], which protein stability index is on record?
Answer: 3.22 ± 0.079

Question: Which protein stability index does the source give for VNIVEKDGAKFIEVRNF [RPL9A] here?
Answer: 3.38 ± 0.19

Question: For VNNCIWALKSSLNSMTN [RGR1], which protein stability index is on record?
Answer: 2.71 ± 0.1

Question: For VNWLAYTYLYVRMLASP [BRR2], which protein stability index is on record?
Answer: 1.11 ± 0.14

Question: For VNYLISNTMYSVRLFSF [YJL039C/NUP192], which protein stability index is on record?
Answer: 1.43 ± 0.046

Question: Which protein stability index does the source give for VPDSKIRIYDLGKKKAT [RPL10] here?
Answer: 1.24 ± 0.076

Question: Which protein stability index does the source give for VPEFFQTANEKHITVRL [SRP14] here?
Answer: 3.02 ± 0.1

Question: For VPGMPAPIKKIIERYIK [PRP8], which protein stability index is on record?
Answer: 3.37 ± 0.24

Question: For VPGPGTKLIQYEHNGRT [CSL4], which protein stability index is on record?
Answer: 3 ± 0.092

Question: For VPIKSSKSGRIFALVFS [RPN13], which protein stability index is on record?
Answer: 2.57 ± 0.14

Question: With VPTLEAKRDYIISRLNA [FAS1] as the sequence, how does the protein stability index read?
Answer: 3.13 ± 0.087

Question: For VPTVPPSQSEEQKGQMA [MED4], which protein stability index is on record?
Answer: 2.78 ± 0.12

Question: Which protein stability index does the source give for VPVKLEEIKTVDPASAP [RRP6] here?
Answer: 2.83 ± 0.13

Question: For VQDCRYSLASVTLKGAK [POP1], which protein stability index is on record?
Answer: 2.35 ± 0.041

Question: Which protein stability index does the source give for VQIKDVNDRYQIPTPNN [CSI1] here?
Answer: 1.72 ± 0.05

Question: For VQISNIPDIGDLPDTEG [PRP8], which protein stability index is on record?
Answer: 3.24 ± 0.07

Question: For VQKSTKTFSYKRPSTFY [RPL20A], which protein stability index is on record?
Answer: 2.73 ± 0.15

Question: Which protein stability index does the source give for VQLRYGDYDSHDISRYV [PRP8] here?
Answer: 2.41 ± 0.062

Question: Which protein stability index does the source give for VQLSPSNPQHIIQPFLD [RGR1] here?
Answer: 2.73 ± 0.051

Question: With VQNSTLAQLTSKLIPEV [RPS1B] as the sequence, how does the protein stability index read?
Answer: 2.19 ± 0.084

Question: With VQPTIGQLPQLPKLNLP [SNF5] as the sequence, how does the protein stability index read?
Answer: 3.05 ± 0.044

Question: For VQQRYTQSGGVRPFGVS [PRE6], which protein stability index is on record?
Answer: 2.8 ± 0.22

Question: With VQQSEKLRNEVERIQKM [YIL149C/MLP2] as the sequence, how does the protein stability index read?
Answer: 3.13 ± 0.13

Question: For VQRQIEQQKGQQTAQTQ [SNF5], which protein stability index is on record?
Answer: 3.41 ± 0.08

Question: Which protein stability index does the source give for VRCVNCSKSIPKDKAIK [RPS26A] here?
Answer: 2.77 ± 0.067

Question: With VRDVAAQDFINAYASFL [RPS19A] as the sequence, how does the protein stability index read?
Answer: 2.85 ± 0.078

Question: For VRFIGDSVAAIGIPVNK [QCR2], which protein stability index is on record?
Answer: 2.83 ± 0.13

Question: For VRKETYSSYIYKVLKQT [HTB2], which protein stability index is on record?
Answer: 3.08 ± 0.074

Question: Which protein stability index does the source give for VRMRLAQLTHSLRRIRD [MED8] here?
Answer: 1.45 ± 0.041

Question: For VRNSFPLDEIPVDVDFN [REC8], which protein stability index is on record?
Answer: 2.71 ± 0.12

Question: Which protein stability index does the source give for VRQKIKTLKRMIKESST [POP1] here?
Answer: 1.47 ± 0.039

Question: Which protein stability index does the source give for VRVQFQFTGFLLHEMTQ [GRR1] here?
Answer: 1.83 ± 0.067

Question: For VSAAEDESLIRELYKYV [PRP28], which protein stability index is on record?
Answer: 3.27 ± 0.11

Question: Which protein stability index does the source give for VSFDFNGVPGQALDAVR [MED8] here?
Answer: 3.1 ± 0.077

Question: Which protein stability index does the source give for VSIKFTNAAFPFHDPEA [ECM29] here?
Answer: 2.3 ± 0.053

Question: For VSKKELYAIKKVTLNKE [BRR2], which protein stability index is on record?
Answer: 1.73 ± 0.072

Question: Which protein stability index does the source give for VSLIKKYKLISRIVEIF [YML103C/NUP188] here?
Answer: 1.34 ± 0.054

Question: With VSLVAEATSNTNSEDKL [MED4] as the sequence, how does the protein stability index read?
Answer: 2.84 ± 0.12

Question: Which protein stability index does the source give for VSLVVNFQISKKMDDYI [PRP28] here?
Answer: 2.39 ± 0.066

Question: Which protein stability index does the source give for VSMITDHNALPQRCTFA [POP1] here?
Answer: 2.97 ± 0.18

Question: For VSNLMGRNIGHPIIQDK [RPB3], which protein stability index is on record?
Answer: 3.42 ± 0.079

Question: Which protein stability index does the source give for VSNPGDNPPPADNGEEY [MED2] here?
Answer: 3.14 ± 0.071

Question: For VSSESSDEAIIPVNKRR [SIR3], which protein stability index is on record?
Answer: 3.31 ± 0.15

Question: With VSTKTNEYRLAFYQVTP [RPL22A] as the sequence, how does the protein stability index read?
Answer: 1.86 ± 0.038

Question: Which protein stability index does the source give for VSVRKHLERNRKDKDAK [RPS13] here?
Answer: 3.38 ± 0.16

Question: With VTEDGTVVTVVSTAKFS [RPL22A] as the sequence, how does the protein stability index read?
Answer: 2.52 ± 0.13

Question: For VTFSVMPPKKSWRNITN [SMC4], which protein stability index is on record?
Answer: 2 ± 0.11

Question: For VTKILPHLIIQNHNSKS [IRR1], which protein stability index is on record?
Answer: 1.41 ± 0.11

Question: For VTLDFGNIFADLLPNSF [SMC2], which protein stability index is on record?
Answer: 2.8 ± 0.1

Question: Which protein stability index does the source give for VTLLANVRALYMRLWEI [RMP1] here?
Answer: 1.57 ± 0.21

Question: Which protein stability index does the source give for VTLVNGKRRMNPGPSVQ [RPS30A] here?
Answer: 2.69 ± 0.049

Question: Which protein stability index does the source give for VTPIIDGIVVKNAVVRS [ARP7] here?
Answer: 1.51 ± 0.074

Question: For VTPTKTEVIIRATRTQD [RPS3], which protein stability index is on record?
Answer: 1.86 ± 0.049

Question: For VTQNVLGLEYIIRLLPI [SRB8], which protein stability index is on record?
Answer: 1.55 ± 0.12

Question: For VTYSDVGGCKDQIEKLR [RPT1], which protein stability index is on record?
Answer: 3.51 ± 0.16
